Our source for the Kd values is article PMC7698151, “Evidence for Pentapeptide-Dependent and Independent CheB Methylesterases” (International Journal of Molecular Sciences, 2020).

The assay concerns the target T1, […] pentapeptide of the McpB (Aer2) chemoreceptor (Pseudomonas aeruginosa PAO1).
T1 construct: also called GWEEF; McpB pentapeptide; source: synthetic peptide (Biomedal S.L., Seville, Spain)
The assay is described as follows: ITC. The conditions noted are these: both partners purified.

B1: P. aeruginosa PAO1 CheB2 (PA0173) (enzyme)
chain: MPISVLVVDDSALIRSLLKEIIQADPELRLVGCAPDAFVARDLIKQHAPDVISLDVEMPRMDGLTFLDKLMKARPTPVLMISSLTERGSEATLRALELGAVDFIAKPRLGIAEGMQAYAEEIRAKLKTVARARLRRRAADAPAPPESAAPLLSTEKIIALGASTGGTEALKEVLLGLPAHSPGVVITQHMPPGFTRSFAERLDRLTRLSVSEARDGDRILPGHALVAPGDHHMEVQRSGANYVVRLNRQAQVNGHRPAVDVMFESLARCAGRNLLAGLLTGMGKDGARGLLAIRQAGGYTLAQDEATCVVYGMPREAVELGAAEDVLPLERIAAALLQQAARRGSGNRL
notes: source: E. coli BL21(DE3), purified (HisTrap HP)
With B1, the Kd was found to be 93 ± 15 µM.
